From patent US20190092852A1 (Genentech, published 2019)
Residue numbers refer to the chain shown, from its start. Several values for one entry are separate records, joined by “and”; a condition that tells them apart may be missing. Identical values can stand only once.

B1: H4H9660P (antibody, V domains shown)
VH: EVQLVESGGGLVQPGGSLRLSCAASGITLSSYGMSWVRQAPGKGLEWVASIFGSGGGPYYADSVKGRFTMSRDNSKNTLYLQMNSLRAEDTAVYYCAKDRYSGSYYGGFDYWGRGTLVTVSS
VL: DIQMTQSPSSVSASVGDRVTITCRASQGITSWLAWYQQKPGKAPTLLIYAASSLQTGVPSRFSGSGSGTDFTLTISSLQPEHFATYYCQQANSFPPTFGGGTKVEIK
B2: H4H9662P (antibody, V domains shown)
VH: EVQLVESGGGLVQPGGSLRLSCAASGFTFSSYALTWVRQAPGKGLEWVSFISGSGGRPFYADSVKGRFTISRDNSKNMLYLQMNSLRAEDTAIYYCAKSLYTTSWYGGFDSWGQGTLVTVSS
VL: B1 VL with I29V, T30V, T45K, T56S, H82D, A91S, P96F, F98L, G100P, E105D
B3: H4H9663P (antibody, V domains shown)
VH: QVQLVQSGAEVKKPGASVKVSCKASGYTFTGHYMYWMRQAPGQGLEWMGWINPNSGGTNYAQKFQDRVTMTRDTSISTAYMELSRLRSDDTAVYYCARGRYGSSWYGGFEYWGQGTLVTVSS
VL: B1 VL with T45N, S52A, T56S, H82D, A84T, N92Y, F94L, P96L
B4: H4H9665P (antibody, V domains shown)
VH: EVQLVESGGGLVQPGGSLRLSCAASGFTFSNYAMTWVRQAPGKGLEWVSTISGSGDNTYYADSVQGRFTISRGHSKNTLYLQMNSLRAEDTAVYYCAKPTYSRSWYGAFDFWGQGTMVTVSS
VL: B1 VL with T30S, T45Q, S53R, T56S, S63W, H82D, S93N, P96F, G100P, E105D
B5: H4H9671P (antibody, V domains shown)
VH: EVQLVESGGGLVQPGGSLRLSCAASGFTLRSYFMTWVRQVPGKGLEGVSAISGISGGTYYTDSVKGRFTISRDNSKNTLFLQMNSLRAEDTAVYFCARTVYSSSYYGGFQHWGQGTLVTVSS
VL: B1 VL with A13V, T30S, T45K, A50V, T56S, H82D, A91T, P96L
B6: 4G12.FW4 (antibody, V domains shown)
VH: ELQLQESGPGLVKPSETLSLTCTVSGGSIRSSIFYWGWIRQPPGKGLEWIGSIYYSGRTYYNPSLKSRVTISVDTSKNQFSLMLTSVTAADTAVYYCARAGGLYNWNDESFSFYMDVWGQGTTVTVSS
VL: EIVLTQSPGTLSLSPGERATLSCRASQSFSSSYLAWYQQKPGQAPRLLIYGASSRATGIPDRFSGSGSGTDFTLTISRLEPEDFAVYYCQQYDRSPLTFGGGTKVEIK
notes: Derivative of 4G12
B7: 9F6.34.E10 (antibody, V domains shown)
VH: EVQLVQSGAEVKKPGASVKVSCKASGYTFTSYWINWVRQAPGQGLEWIGRIAPGSGFISYNELFKDRVTITRDTSTSTAYLELSSLRSEDTAVYYCAREFYYGSFYGGFAYWGQGTLVTVSS
VL: DIQMTQSPSSLSASVGDRVTITCHASQNIHVWLSWYQQKPGKAPKLLIYKASTLHTGVPSRFSGSGSGTDFTLTISSLQPEDFATYYCQQGQSSPLTFGQGTKVEIK
notes: Humanized variant of 9F6
B8: 101.B11 (antibody, V domains shown)
VH: QVQLVQSGGGLVQPGGSLKLSCAASGFTFSGSAMHWVRQASGKGLEWVGRIRSRNNNYATAYAASVKGRFTISRDDSKRTTYLQMNSLKTEDTAVYYCTRLQQPPFDYWGQGTLVTVSS
VL: DIQMTQSPSSLSASVGDRVTITCRASQGIRNDLDWYQQKPGKAPKRLIYAASSLQSGVPSRFNGSGSGTEFTLTISSLQPEDFATYYCLQHDSYPLTFGGGTKVEIK
notes: Transgenic mouse / phage display

Target: T1, cynomolgus monkey N-terminal 6-His-tagged and C-terminal Avi-tagged IL-33 (S112-T270) (cynomolgus monkey)
T1 chain: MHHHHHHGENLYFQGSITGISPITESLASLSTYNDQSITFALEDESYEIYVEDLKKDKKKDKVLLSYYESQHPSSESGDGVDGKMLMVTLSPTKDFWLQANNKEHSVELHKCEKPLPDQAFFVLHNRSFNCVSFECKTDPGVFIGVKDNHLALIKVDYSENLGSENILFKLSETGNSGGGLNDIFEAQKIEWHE
Assay: cell-based or functional assay

| Binder | IC50; SEAP reporter (OD 620), HEK-BLUE IL-33/IL-1beta cells, 5 pM cyno IL-33 (5pM cIL-33-Nhis) [M] |
| --- | --- |
| B1 | 4.8e-08 |
| B2 | 3.4e-08 |
| B3 | 2.3e-08 |
| B4 | 1.1e-08 |
| B5 | 5e-08 |

Target: T2, cyno IL-33 N-His (cynomolgus monkey)
T2 chain: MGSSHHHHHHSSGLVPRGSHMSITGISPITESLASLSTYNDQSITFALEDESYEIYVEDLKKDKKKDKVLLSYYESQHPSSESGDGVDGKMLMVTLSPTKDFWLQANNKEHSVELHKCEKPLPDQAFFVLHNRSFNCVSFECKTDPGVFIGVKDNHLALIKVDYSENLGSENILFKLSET
Assay: SPR Biacore T200, 25 C
Method: (§1) The binding kinetics of the anti-IL-33 antibody 10C12.38.H6.87Y.58I IgG4 and each anti-IL-33 antibody listed in Table 5 (RG1-RG20) to IL-33 were measured using surface plasmon resonance (SPR) on a BIACORE® T200 instrument (GE Healthcare). Anti-human Fc or anti-murine Fc (GE Healthcare, #BR-1008-39 or BR-1008-38, respectively) was immobilized on a CM5 sensor chip via amine-based coupling according to the manufacturer's protocol. Surfaces were used to capture monoclonal human IgG4 and monoclonal murine IgGs for kinetic studies. Antibody binding was measured to human IL-33 (R&D systems, #3625-IL-010/CF) and cyno IL-33 N-His (SEQ ID NO: 317) (Genentech, Inc.). A three-fold concentration series of cytokine with a range of 3.7 to 100 nM was used for the experiments. Sensograms for binding of IL-33 were recorded using an injection time of 4 min with a flow rate of 30 μl/minute with a running buffer of 0.01 M N-(2-Acetamido)iminodiacetic acid (ADA) pH 7.4, 0.15 M NaCl, 3 mM EDTA, and 0.05% TWEEN®-20. After injection, disassociation of the ligand from the antibody was monitored for 10 min in running buffer. The surface was regenerated in between cycles with an injection of 3 M magnesium chloride or Glycine-HCl pH 1.7. All binding experiments were performed at a temperature of 25′C and 37° C. After subtraction of a blank which contained running buffer only, sensograms observed for IL-33 binding to anti-IL-33 antibodies were analyzed using a 1:1 Langmuir binding model with software supplied by the manufacturer to calculate the kinetics and binding constants, including the dissociation constant (KD). Dissociative half-lives (t_{1/2}) were calculated from the kinetic rate constants. KD (M)=koff/kₒₙ and t_{1/2} (min)=ln(2)/(60*koff). […] In Tables 6-9, *IC indicates the result is inconclusive due to weak capture of antibody was observed, leading to poor binding data.

| Binder | Kd [nM] | koff [s⁻¹] | kon [M⁻¹ s⁻¹] | t1/2 [min] |
| --- | --- | --- | --- | --- |
| B1 | 2.69 | 0.00064 | 238000 | 18 |
| B2 | 1.28 | 0.000313 | 245000 | 37 |
| B3 | 1.07 | 0.000545 | 511000 | 21 |
| B4 | 0.976 | 0.000426 | 437000 | 27 |
| B5 | 1.72 | 0.000915 | 533000 | 13 |

Target: T3, cyno IL-33 (cell-based blocking assay of Example 2) (cynomolgus monkey, UniProt A0A2K5W3I1 95-269)
T3 sequence: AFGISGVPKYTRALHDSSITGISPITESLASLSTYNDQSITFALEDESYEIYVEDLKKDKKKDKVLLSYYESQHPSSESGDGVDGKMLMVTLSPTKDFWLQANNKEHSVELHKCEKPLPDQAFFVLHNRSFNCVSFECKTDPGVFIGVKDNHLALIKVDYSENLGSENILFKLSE
Assay: cell-based or functional assay

| Binder | Cell assay (cy) IC90 |
| --- | --- |
| B6 | 0.034 µg/mL and 0.224 nM |
| B7 | > 1.5 µg/mL and > 9.9 nM |

Target: T4, human IL-33 (cell-based blocking assay of Example 2) (human, UniProt O95760 112-270)
T4 sequence (looked up): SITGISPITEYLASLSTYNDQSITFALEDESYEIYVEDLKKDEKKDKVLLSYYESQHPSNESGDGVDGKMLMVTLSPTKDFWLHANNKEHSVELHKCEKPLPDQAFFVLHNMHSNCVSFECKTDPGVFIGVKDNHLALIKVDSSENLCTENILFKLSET
Assay: cell-based or functional assay

| Binder | Cell assay (hu) IC90 |
| --- | --- |
| B6 | 0.17 µg/mL and 1.12 nM |
| B7 | 0.0128 µg/mL and 0.84 nM |
| B8 | 0.3 µg/mL |

Target: T5, cyno IL-33 (construct not stated) (cynomolgus monkey, UniProt A0A2K5W3I1 112-269)
T5 construct: also called cynomolgus IL-33; cyno IL-33 (Genentech)
T5 sequence: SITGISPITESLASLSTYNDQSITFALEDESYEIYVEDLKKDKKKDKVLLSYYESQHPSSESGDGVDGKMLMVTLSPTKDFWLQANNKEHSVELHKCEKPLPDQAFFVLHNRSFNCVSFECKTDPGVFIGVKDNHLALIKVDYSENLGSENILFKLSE
Assay: SPR Biacore

| Binder | Kd [nM] |
| --- | --- |
| B6 | 0.07 |
| B8 | 0.783 |

Target: T6, human IL-33 (Genentech, huIL33.his) (human, UniProt O95760 112-270)
T6 sequence (looked up): T4 sequence (looked up)
Assay: SPR Biacore

| Binder | Kd [nM] |
| --- | --- |
| B6 | 0.038 |
| B7 | 0.795 |
| B8 | 0.527 |

Target: T2, cyno IL-33 N-His
Assay: SPR Biacore T200, 37 C
Method: as §1

| Binder | Kd [nM] | koff [s⁻¹] | kon [M⁻¹ s⁻¹] | t1/2 [min] |
| --- | --- | --- | --- | --- |
| B1 | 7.93 | 0.00305 | 385000 | 4 |
| B2 | 2.31 | 0.00112 | 484000 | 10 |
| B3 | 1.03 | 0.00202 | 1.96e+06 | 6 |
| B4 | 1.96 | 0.00142 | 727000 | 8 |
| B5 | 3.66 | 0.00326 | 890000 | 4 |

Target: T7, biotinylated cyno IL-33 (cynomolgus monkey, UniProt A0A2K5W3I1 112-269, biotin-labeled with EZ-LINK NHS-PEG4-Biotin)
T7 construct: also called biotin-cyIL-33
T7 sequence: T5 sequence
Assay: competitive ELISA, biotin-cyIL-33 to coated hST2-Fc
Method: The ability of the anti-IL-33 antibody 10C12.38.H6.87Y.58I IgG4 and each anti-IL-33 antibody listed in Table 5 (RG1-RG20) to block either human IL-33 or cyno IL-33 binding to human ST2 receptor was tested in a competitive binding ELISA. Briefly, 1 μg/ml of recombinant human ST2-Fc chimera protein prepared in coating buffer (50 mM sodium carbonate, pH 9.6) was coated on a 384-well MAXISORP® plate (Nalgene Nunc International; Rochester, N.Y.) and incubated overnight at 4° C. On the next day, non-specific binding was blocked with PBS containing 0.5% (w/v) solution of bovine serum albumin (BSA). Fixed concentrations of biotinylated human or cyno IL-33 prepared in assay buffer (25 mM PBS, pH 7.2, 0.1% BSA, 0.05% TWEEN®-20) were mixed with an equal volume of serially-diluted anti-IL-33 antibodies or assay buffer alone and incubated for 1 h at room temperature. The final assay concentrations of biotinylated human IL-33 or cyno IL-33 were 20 pM and 45 pM, respectively, and the final assay concentration of each antibody ranged from 0-300 nM. The pre-mixed solutions were added to the ST2-Fc coated plate and incubated for 1 h at room temperature. The binding of biotinylated IL-33 to coated ST2-Fc was detected by the sequential addition of Streptavidin Poly-HRP80 (Fitzgerald; Buckinghamshire, UK) and 3,3′,5,5′-tetramethyl benzidine (TMB) Microwell Peroxidase Substrate System (KPL; Gaithersburg, Md.). The absorbance (450 nm) was recorded using a […] ASCENT® plate reader (Thermo Scientific; Rockford, Ill.). The binding activity (%) of biotin-IL-33 to ST2 in the presence of anti-IL-33 was plotted as a function of antibody concentration. The data generated were fitted to a four-parameter equation to determine IC₅₀ values for each antibody (FIGS. 25A and 25B) using Prism software (Graphpad Software; La Jolla, Calif.). The maximum blocking (%) of each antibody was calculated as the ratio of the reduction in signal measured in the presence of antibody relative to the difference between the signal with IL-33 alone and background measurements.

| Binder | IC50 [nM] | Maximum Blocking [%] |
| --- | --- | --- |
| B1 | 120 | 18 |
| B2 | 66 | 47 |
| B3 | 26 | 61 |
| B4 | 19 | 53 |
| B5 | 70 | 40 |
